Source: publication PMC5428876, “The role of Lon-mediated proteolysis in the dynamics of mitochondrial nucleic acid-protein complexes”

What was measured:
[1] = molecular target: T1, Abf2 (Saccharomyces cerevisiae, UniProt Q02486 27-183, del1-26); assay: EMSA; 25 mM Tris-HCl pH 7.4, 100 mM NaCl, 0.1 mg/ml BSA, 10 min, 30 C (Abf2) or 37 C (TFAM); Cy3 probes 75 nM, ssDNA 10 uM, dsDNA 4 uM; Mgm101 as in Pevala et al.; conditions: protein: recombinant, tags: 6xHis-GST removed by PreScission, chain copies: 2, label: 5' Cy3
T1 sequence: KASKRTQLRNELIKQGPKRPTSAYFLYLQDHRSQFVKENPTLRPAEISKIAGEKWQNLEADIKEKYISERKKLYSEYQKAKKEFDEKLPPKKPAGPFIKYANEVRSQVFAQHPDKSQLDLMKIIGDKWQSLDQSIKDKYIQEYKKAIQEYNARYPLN

[2] = molecular target: T2, Saccharomyces cerevisiae mtDNA packaging protein Abf2 lacking the mitochondrial targeting sequence (S. cerevisiae), Q02486; assay: SEC; final purification step of Abf2 on Superdex 75 10/300 GL in buffer B (50 mM ammonium acetate, pH 7.3, 500 mM KCl) with 5% (v/v) glycerol; conditions: remark: other sources report otherwise
T2 chain: T1 sequence

B1: dsDNA 49 bp (dsDNA)
DNA 1: AGCTACCATGCCTGCACGAATTAAGCAATTCGTAATCATGGTCATAGCT
DNA 2: AGCTATGACCATGATTACGAATTGCTTAATTCGTGCAGGCATGGTAGCT
binding result ([1]; blunt): binds

B2: 3' flap (structured_DNA)
DNA 1: B1 DNA 1
DNA 2: AATTCGTGCAGGCATGGTAGCT
DNA 3: AGCTATGACCATGATTACGAATTGCTTGGAATCCTGACGAACTGTAG
binding result ([1]; flap 1:2 1:3, 3' flap 20 nt on strand 3): binds

B3: fork (structured_DNA)
DNA 1: B1 DNA 1
DNA 2: B2 DNA 3
DNA 3: CTACAGTTCGTCAGGATTCC
DNA 4: AATTCGTGCAGGCATGGTAGCT
binding result ([1]; fork): binds

B4: 5' overhang (mixed)
DNA 1: B1 DNA 1
DNA 2: AGCTATGACCATGATTACGAATTGCTT
binding result ([1]; 5' overhang 22 nt): binds

B5: 3' overhang (mixed)
DNA 1: B1 DNA 1
DNA 2: AATTCGTGCAGGCATGGTAGCT
binding result ([1]; 3' overhang 27 nt): binds

B6: 5' flap (structured_DNA)
DNA 1: B1 DNA 1
DNA 2: AGCTATGACCATGATTACGAATTGCTT
DNA 3: GATGTCAAGCAGTCCTAAGGAATTCGTGCAGGCATGGTAGCT
binding result ([1]; flap 1:2 1:3, 5' flap 20 nt on strand 3): binds

B7: Y-form (structured_DNA)
DNA 1: B1 DNA 1
DNA 2: B2 DNA 3
binding result ([1]; Y-form): binds

B8: Saccharomyces cerevisiae mtDNA packaging protein Abf2 lacking the mitochondrial targeting sequence, Q02486 27-183 (natural protein)
chain: T1 sequence
stoichiometry N [2]: 2
